{"source": "paper PMC4935573", "key": {"[1]": {"target": "regulatory domain of human tryptophan hydroxylase 1, C64S (RDTPH1 C64S) (human) (UniProt P17752)", "assay": "SEC"}, "[2]": {"target": "regulatory domain of human tryptophan hydroxylase 1, C64S (RDTPH1 C64S) (human) (UniProt P17752)", "assay": "AUC"}, "[3]": {"target": "regulatory domain of human tryptophan hydroxylase 1, C64S (RDTPH1 C64S) (human) (UniProt P17752)", "assay": "SEC", "remark": "listed apart in the source"}}, "note": "“And” between values parts separate entries of the source, which are not always exact repeats. Equal entries are not always repeated.", "data": [{"substance": "regulatory domain of human tryptophan hydroxylase 1, C64S (RDTPH1 C64S) (from UniProt P17752 1-101) (domain or fragment)", "values": [{"measurement": "stoichiometry N", "setting": "[1]", "result": 2}, {"measurement": "stoichiometry N", "setting": "[2]", "result": 2}, {"measurement": "stoichiometry N", "setting": "[3]", "result": "2 and 4"}]}]}
